{"source": "patent US20240059788A1", "about": "(Kyowa Kirin, published 2024)", "binders": {"B1": {"name": "Ep203 phage clone (scFv, V domains shown)", "VH": "EVQLVQSGAEVKKPGASVKVSCKASGFTFSSYYMHWVRQAPGQGLEWMGIVNPTGGATSYAQKFQGRVTMTRDTSTSTVYMELSSLRSEDTAVYYCAKHGYGASTLFDSWGQGTLVTVSS", "VL": "not shown"}, "B2": {"name": "R2089 phage clone (scFv, V domains shown)", "VH": "EVQLVQSGAEVKKPGASVKVSCKASGYSFTRYIMHWVRQAPGQRLEWMGWINAGNGNTKYSQKFQGRVTITRDTSANTAYMELSSLRSEDTAVYYCARDEPVAGSFFDYWGQGTLVTVSS", "VL": "not shown"}, "B3": {"name": "Epc112 phage clone (scFv, V domains shown)", "VH": "EVQLVQSGTEVKKPGASVKVSCRASGNTFTNYYIHWVRQAPGQGLEWMGIINPSGGATNYAQILQGRVTMTRDTSTSTVYMELSSLRSEDTAVYYCAGGGSAATFAYWGQGTLVTVSS", "VL": "not shown"}, "B4": {"name": "R2178 phage clone (scFv, V domains shown)", "VH": "QVQLQQWGAGLLKPSETLSLTCAVYGGSFSGYYWSWIRQSPGKGLEWIGEINHGGITNYNPSLKSRVTISVDTSKNQFSLKLGSVTAADTAVYYCARDNYYGSGSNDGVYQYYGIDVWGQGTTVTVSS", "VL": "not shown"}, "B5": {"name": "Epc051 phage clone (scFv, V domains shown)", "VH": "EVQLVQSGAEVKKPGASVKVSCKASGYTFTSNYMHWVRQAPGQGLEWMGIINPSGGATSYAQKFQGRVTMTRDTSTSTVYMELSSLRSEDTAVYYCASGGYYGSVIMDVWGQGTLVTVSS", "VL": "not shown"}, "B6": {"name": "anti-EpCAM monoclonal antibody 3622W94 (antibody, V domains shown)", "VH": "QVQLVQSGPEVKKPGASVKVSCKASGYTFTNYGMNWVRQAPGQGLEWMGWINTYTGEPTYGEDFKGRFAFSLDTSASTAYMELSSLRSEDTAVYFCARFGNYVDYWGQGSLVTVSS", "VL": "DIVMTQSPLSLPVTPGEPASISCRSSKNLLHSNGITYLYWYLQKPGQSPQLLIYQMSNLASGVPDRFSSSGSGTDFTLKISRVEAEDVGVYYCAQNLEIPRTFGQGTKVEIK"}, "B7": {"name": "R1066 phage clone (scFv, V domains shown)", "VH": "QVQLQQWGAGLLKPSETLSLTCAVYGGSFSGYYWSWIRQPPGKGLEWIGEINHGGITHYNPSLKSRVTISVDTSKNQFSLKLSSVTAADTAVYYCARDNYYGSGSYYKYDYYGMDVWGQGTTVTVSS", "VL": "not shown"}, "B8": {"name": "anti-CD40 monoclonal antibody 21.4.1 (antibody, V domains shown)", "VH": "not shown", "VL": "DIQMTQSPSSVSASVGDRVTITCRASQGIYSWLAWYQQKPGKAPNLLIYTASTLQSGVPSRFSGSGSGTDFTLTISSLQPEDFATYYCQQANIFPLTFGGGTKVQIK", "notes": "also called anti-CD40 agonistic antibody; CP870,893"}}, "key": {"[1]": {"target": "T1, human EpCAM-GST (human, UniProt P16422 24-265)", "T1 construct": "also called soluble human EpCAM antigen; not shown: GST added to the C terminus (N5 vector)", "T1 sequence": "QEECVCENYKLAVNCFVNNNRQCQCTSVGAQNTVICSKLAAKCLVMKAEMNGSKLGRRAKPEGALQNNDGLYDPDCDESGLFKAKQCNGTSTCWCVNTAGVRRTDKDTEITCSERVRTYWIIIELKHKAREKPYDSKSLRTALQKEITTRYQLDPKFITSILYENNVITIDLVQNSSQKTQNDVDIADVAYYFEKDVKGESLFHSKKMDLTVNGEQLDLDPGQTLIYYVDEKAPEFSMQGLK", "test": "phage ELISA on immobilized EpCAM-GST"}, "[2]": {"target": "T2, monkey EpCAM-GST (monkey, UniProt Q1WER1 24-265)", "T2 construct": "not shown: GST added to the C terminus (N5 vector)", "T2 sequence": "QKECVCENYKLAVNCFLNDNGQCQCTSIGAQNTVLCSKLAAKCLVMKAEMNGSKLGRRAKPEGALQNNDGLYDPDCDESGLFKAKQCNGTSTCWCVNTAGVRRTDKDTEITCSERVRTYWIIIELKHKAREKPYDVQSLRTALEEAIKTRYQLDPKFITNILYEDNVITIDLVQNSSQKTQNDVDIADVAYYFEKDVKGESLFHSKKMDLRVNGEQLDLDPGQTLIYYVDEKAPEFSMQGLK", "test": "phage ELISA on immobilized EpCAM-GST"}, "[3]": {"target": "T3, mouse EpCAM-GST (mouse, UniProt Q99JW5 24-266)", "T3 construct": "not shown: GST added to the C terminus (N5 vector)", "T3 sequence": "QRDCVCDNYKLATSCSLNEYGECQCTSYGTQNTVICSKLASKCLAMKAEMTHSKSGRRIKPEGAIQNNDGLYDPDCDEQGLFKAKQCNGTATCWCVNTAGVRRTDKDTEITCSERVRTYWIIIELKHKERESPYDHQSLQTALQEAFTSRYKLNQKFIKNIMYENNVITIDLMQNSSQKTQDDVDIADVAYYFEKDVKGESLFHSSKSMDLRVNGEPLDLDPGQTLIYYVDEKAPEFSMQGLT", "test": "phage ELISA on immobilized EpCAM-GST"}, "[4]": {"target": "T4, human CD40-GST (human, UniProt P25942 21-193)", "T4 construct": "also called soluble human CD40 antigen; not shown: GST region of the N5 vector", "test": "phage ELISA on immobilized CD40-GST", "experimental": "(§1) In the ELISA, MAXISORP (manufactured by NUNC, Inc.) in which the human or monkey CD40-GST in Example 1 was immobilized on each well and a portion to which the human or monkey CD40-GST is not bound was blocked using SuperBlock Blockig Buffer (manufactured by Thermo Fisher, Inc.) was used. To each well, each phage clone was added and reacted at room temperature for 30 minutes, and thereafter, each well was washed 3 times with PBS-T.\n(§2) Subsequently, an anti-M13 antibody (manufactured by GE Healthcare, Inc.) labeled with horseradish peroxidase was diluted by 5000 times with PBS-T containing 10% Block Ace (manufactured by Dainippon Pharmaceutical Co., Ltd.), and the resultant was added in an amount of 50 μL to each well, and incubated at room temperature for 30 minutes. After the microplate was washed four times with PBS-T, a TMB chromogenic substrate solution (manufactured by DAKO, Inc.) was added in an amount of 50 μL to each well and incubated at room temperature for 10 minutes."}, "[5]": {"target": "T5, monkey CD40-GST (monkey, UniProt P25942 21-193 (human entry))", "T5 construct": "not shown: GST region of the N5 vector", "T5 chain": "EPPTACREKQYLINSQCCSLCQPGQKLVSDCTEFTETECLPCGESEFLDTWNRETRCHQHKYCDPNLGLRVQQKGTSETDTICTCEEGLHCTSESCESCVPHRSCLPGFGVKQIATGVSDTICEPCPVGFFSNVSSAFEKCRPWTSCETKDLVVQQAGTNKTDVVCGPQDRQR", "test": "phage ELISA on immobilized CD40-GST", "experimental": "as §1, §2"}, "[6]": {"target": "T6, human CD40 on Ramos cells (human, UniProt P25942 21-277)", "T6 construct": "Native CD40 of Ramos cells (Burkitt's lymphoma)", "test": "flow cytometry on Ramos cells, detection with goat F(ab')2 anti-human IgG R-PE [A]", "experimental": "(§3) Ramos cells were suspended in Staining Buffer (SB) that is D-PBS(−) containing 0.1% NaN₃ and 1% FBS at a cell density of 1×10⁶ cells/mL, and the suspension was dispensed in a 96-well round bottom plate (manufactured by Falcon, Inc.) at 100 μL/well.\n(§4) After further centrifugation (2000 rpm, 4° C., 2 minutes), the supernatant was removed, the resulting pellet was washed three times with 200 μL/well of SB, and thereafter, 1 μg/mL of Goat F(ab′)₂ Anti-Human IgG (γ chain specific) R-phycoerythrin (R-PE) Conjugate (manufactured by Southern Biotech, Inc.) was added at 50 μL/well, and the resultant was incubated for 30 minutes at ice temperature. After washing twice with SB, the cells were suspended in 200 μL/well of SB, and the fluorescence intensity of each cell was measured using a flow cytometer FACSCANTO II (manufactured by Becton, Dickinson and Company)."}, "[7]": {"target": "T7, human EpCAM on human EpCAM/HEK 293 cells and Colo 205 cells (human, UniProt P16422 24-314)", "T7 construct": "Colo 205 cells carry native EpCAM; also called hEpCAM", "T7 sequence": "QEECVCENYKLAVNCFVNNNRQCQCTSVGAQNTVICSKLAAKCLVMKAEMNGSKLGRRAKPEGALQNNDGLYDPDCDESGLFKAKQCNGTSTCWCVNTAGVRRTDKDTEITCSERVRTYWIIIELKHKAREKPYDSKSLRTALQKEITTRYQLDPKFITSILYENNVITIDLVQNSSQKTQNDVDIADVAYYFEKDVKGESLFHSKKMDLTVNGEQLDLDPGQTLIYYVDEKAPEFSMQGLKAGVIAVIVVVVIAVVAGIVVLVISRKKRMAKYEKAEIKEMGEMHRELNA", "test": "flow cytometry on Colo 205 cells and on human EpCAM/HEK 293 cells, antibody at 10 ug/mL, detection with goat F(ab')2 anti-human IgG R-PE [B), (D]", "experimental": "as §3, §4\n(§5) Similarly, Colo 205 cells, HEK 293 cells, and human EpCAM/HEK 293 cells were evaluated, respectively. As the negative control, IgG4 antibodies 5228P, L235E, and R409K mutants (hereinafter referred to as anti-DNP antibodies) produced according to the method described in Example 5 of WO 2006/033386 using a vector encoding VL and VH (GenBank accession No. VL U16688, VH U116687) of the 2,4-dinitrophenol (DNP) antibody described in Mol Immunol. 1996 June; 33 (9): 759-68 were used."}, "[8]": {"target": "T7, human EpCAM on human EpCAM/HEK 293 …", "test": "flow cytometry on Colo 205 cells and on human EpCAM/HEK 293 cells, detection with goat F(ab')2 anti-human IgG R-PE [B), (D]", "experimental": "as §3, §4, §5"}, "[9]": {"target": "T8, mouse CD40 (mouse, UniProt P27512 20-193, limits assumed)", "T8 sequence (looked up)": "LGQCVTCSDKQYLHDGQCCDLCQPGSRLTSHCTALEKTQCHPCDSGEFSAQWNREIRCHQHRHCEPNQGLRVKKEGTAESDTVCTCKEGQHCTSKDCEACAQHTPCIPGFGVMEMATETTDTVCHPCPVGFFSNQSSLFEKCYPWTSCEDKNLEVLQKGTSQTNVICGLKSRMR", "test": "not described"}}}
{"binder": "B1", "values": [{"measurement": "binding result", "setting": "[1]", "value": "binds"}, {"measurement": "binding result", "setting": "[2]", "value": "binds"}, {"measurement": "binding result", "setting": "[3]", "value": "binds"}]}
{"binder": "B2", "values": [{"measurement": "binding result", "setting": "[4]", "value": "binds"}, {"measurement": "binding result", "setting": "[5]", "value": "binds"}]}
{"binder": "B3", "values": [{"measurement": "binding result", "setting": "[1]", "value": "binds"}, {"measurement": "binding result", "setting": "[2]", "value": "binds"}, {"measurement": "binding result", "setting": "[3]", "value": "binds"}]}
{"binder": "B4", "values": [{"measurement": "binding result", "setting": "[4]", "value": "binds"}, {"measurement": "binding result", "setting": "[5]", "value": "binds"}]}
{"binder": "B5", "values": [{"measurement": "binding result", "setting": "[1]", "value": "binds"}, {"measurement": "binding result", "setting": "[2]", "value": "binds"}, {"measurement": "binding result", "setting": "[3]", "value": "binds"}]}
{"binder": "B6", "values": [{"measurement": "binding result", "setting": "[6]", "value": "no binding (tested: 10 ug/mL)"}, {"measurement": "binding result", "setting": "[7]", "value": "binds"}]}
{"binder": "B7", "values": [{"measurement": "binding result", "setting": "[4]", "value": "binds"}, {"measurement": "binding result", "setting": "[5]", "value": "binds"}]}
{"binder": "B8", "values": [{"measurement": "binding result", "setting": "[8]", "value": "no binding (tested: 10 ug/mL)"}, {"measurement": "binding result", "setting": "[9]", "value": "no binding"}]}
